From a protein production outcome set (Wang et al. 2014)

Experiment: label from the status in PepcDB records

Sequence	protein production
MKVAVIGSGISGLGSAYVLANQGVKEVVLYEKEESLGGHAKTVRFDGVDLDLGFMVFNRVTYPNMIEFFENLGVEMEVSDMSFAVSLDNGKGCEWGSRNGVSGLFAQKKNVLNPYFWQMIREIVRFKEDVLNYIEKLEGNPDIDRKETLGEFLNTRGYSELFQQAYLVPICGSIWSCPSDGVLSFSAYSVLSFCCNHHLLQIFGRPQWLTVAGRSQTYVAKVRAELERLGCKIRTSCDVKSVSTSENGCVTVTSGDGSEEVFDRCILAMHAPDALRLLGEEVTFDESRVLGAFQYVYSDIYLHHDIDLMPRNKAAWSAWNFLGSTEKKVCVTYWLNILQNLGENSEPFFVTLNPDETPKKALLKWTTGHPVPSVAASIASQELHQIQGKRNIWFCGAYQGYGFHEDGLKAGMAAARGLLGKETALLNNPRHMVPSLTETGARLFVTRFLGQFISTGSVTILEEGGTMFTFGGKDSTCPLKSILKIHSPQFYWKVMTQADLGLADAYINGDFSFVDKESGLLNLIMILIANRDTKSNLTKKRGWWTPMFLTAGLASAKYFLKHVSRQNTLTQARRNISRHYDLSNELFGLFLDDTMTYSSAVFKSDDEDLRTAQMRKISLLIDKARIEKDHEVLEIGCGWGTLAIEVVRRTGCKYTGITLSIEQLKYAEEKVKEAGLQDRITFELRDYRQLSDAHKYDRIISCEMLEAVGHEFMEMFFSRCEAALAEDGLMVLQFISTPEERYNEYRLSSDFIKEYIFPGACVPSLAKVTSAMSSSSRLCIEHVENIGIHYYQTLRLWRKNFLERQKQIMALGFDDKFVRTWEYYFDYCAAGFKTRTLGDYQLVFSRPGNVAAFADSYRGFPSAYCVS	failed
RIVGELEQMVSEDVPLDHRVHARIIGARGKAIRKIMDEFKVDIRFPQSGAPDPNCVTVTGLPENVEEAIDHILNLEEEYLAD	not failed
SKIHNVGSPLKSQNHPDSRAIMYEETTYSKKKIIDFLSALEGFKVMCKIIGIMEEVADGFKSKILKQVISLQTKNPEGRFPDLTVELNRWDTAFDHEKARKTGLITPKAGFDSDYDQALADIRENEQSLLEYLEKQRNRIGCRTIVYWGIGRNRYQLEIPENFTTRNLPEEYELKSTKKGCKRYWTKTIEKKLANLINAEERRDVSLKDCMRRLFYNFDKNYKDWQSAVECIAVLDVLLCLANYSRGGDGPMCRPVILLPEDTPPFLELKGSRHPCITKTFFGDDFIPNDILIGCEEEEQENGKAYCVLVTGPNMGGKSTLMRQAGLLAVMAQMGCYVPAEVCRLTPIDRVFTRLGASDRIMSGESTFFVELSETASILMHATAHSLVLVDELGRGTATFDGTAIANAVVKELAETIKCRTLFSTHYHSLVEDYSQNVAVRLGHMACMVENECEDPSQETITFLYKFIKGACPKSYGFNAARLANLPEEVIQKGHRKAREFEKMNQSLRLFREVCLASERSTVDAEAVHKLLTLIKEL	failed
MKQKDLKRAYNNVLAQAISGSKQYLFAGNLFGDIFVLRIKELDKGSEEPPGKLKIFPQGSDVDINYLAFHRDFLIVGAVGLIYGLEWNEEEESLATKRSWEVKIPMQVDAVEVPDVNSMWLDSENSILFAGCGDGVIYQVSLEDGRIQREYRGHTDYVHSVVGNANGQIFSGAEDGTVRVWSTKQQQHTSMLEPYKNPNLLRPDWGKWIGAVAVNEDWLLCGGGPKASIFHLRSMESTCVFSFPGRVHLCDFVDDCVLIGGEHNHVQSYTLNGVLQANIPVEHTACYSAVWQTSPIKFISIAGFSNKLHILKDFRFLDSKIEMYGNVEGEENDPEEEDELIEKPLTVEAA	failed
MKRSILNTLLNVLAIIFIVFLMIKVSVPMGSILLLSFIIFKLTINKHLIYMFKGAKKLRANNLEEALSLYRKAALCNSSNVKAIKTYVFLELKIGSYTEALETLKSIVSKRKFLPEDANQLDLLQAILYWKLNDIKTSLQILDDLKANNFNSLDFYEVYGYVLIQDEDFEKAISISNEGLKVDELSQIIRANLGEIFYKIGDIKKACFYFDELIDECVNFSEPYYFMGIISKEKEDFYKAKEFLNKALKYDESILSNLSKNDIENALISINH	failed
MESPHAADPEGIDPQVVELATTIFALARAGDTASLDAYIRAGVPANLTNDQGDTLVMLAAYYGHADTVECLCRHGADVNRLNDRGQSPLAGAVFKDEDAVVKTLLAHGADPTLGQPSAIDTARMFGKEHYLELFDNA	failed
MHVVQGAKTMWNKIQVVSHGRGGLRSQCCETTMIGHPTPTPAQDSETQPSPQEHIPEKKPLPKEIGGRDGPEPTRYGDWEKNGRCIDFLEHHHHHH	failed
MANENVAFENKRQVYHYEPPIQKEEAIPKQYFAGFWIRFLAYLVDLVVIAALKGIIINPIFRVSGMGMDDSFFTFYWGMTTIIFLAYFILLTKFFGQTLGKMLFGLRVVKLDGGKLTWLTVLFREGAMRFVLKTIWPLYVVCAFTPNKQGIADFFESTSVVHTGYLELDEKWVNGAKK	failed
MSQLNSVWVFSDNPERYAELFGGAQQWGQQVYAIVQNTEQAQAVMPYGPKCIYVLEQNDALQRTENYAESIAALLKDKHPAMLLLAATKRGKALAARLSVQLNAALVNDATAVDIVDGHICAEHRMYGGLAFAQEKINSPLAIITLAPGVQEPCTRDISHQCPTETVPYVAPRHEILCRERRAKAASSVDLSKAKRVVGVGRGLAAQDDLKMVHELAAVLNAEVGCSRPIAEGENWMERERYIGVSGVLLKSDLYLTLGISGQIQHMVGGNGAKVIVAINKDKNAPIFNYADYGLVGDIYKVVPALISQLNR	failed
MTGRIVHFEIPFDDGDRARAFYRDAFGWAIAEIPDMDYSMVTTGPVGESGMPDEPGYINGGMMQRGEVTTPVVTVDVESIESALERIESLGGKTVTGRTPVGNMGFAAYFTDSEGNVVGLWETAR	not failed
MLEQGLDYVVKLAKSKKQILDANPMQYFIRAALAGIYIGFIIVLCFKLGNFFHIADSPATYLAASMFFGIALVLIIYGGAELFTGNTMYFTVATLRKETTISDTLRNWVACYAGNLAGALFFALLFYATGIFEAIDHGHLMNKVVEGKMNTPTMQLFFKAILCNWLVCLACFLPSQVKGDTAKIMIMMLLVFTFFLSGYEHSIANLSLFALSLVSPHPETISFAGAIHNLIPVTIGNIIGGSVFVGMVYHYLTKKVPDVKQEETELVAAQQEEIIPLQAHMKH	failed
MDKIRTLLLRLPRRQKRVLQVVTDILLVWVALWMAFVVRLGFDDLNNPFIVHFWLFASAPIVAIPLFIRFGMYRAVMRYFGNDALIAIVKAVTLSALTLALVVYVYSNHQTVVPRSIVFNYWWLSMVMIGGLRLAMRQYFLGDWFTTAQHVPFTNRDDGLPKVAIYGAGAAGNQLVAALRLGRLMRPVAFIDDDGSIADRMIAGLQVYKPKHLQQMIDDTGAEEILLAIPSSSRSRRREILGYLEGFPLHVRSVPGFMDLASGRVKVDDIQEVDIADLLGRDAVPAQVDLLAHCIKGQTVLVTGAGGSIGSELCRQILLQGPSTLILLDHSEFNLYSILSELEQRVSRESRLVKLLPILGSVRNYEKLLSVMRTWSVDTVYHAAAYKHVPMVEHNIAEGVLNNVMGTLNTAQAALQCGVANFVLISTDKAVRPTNVMGSTKRLAELTLQALSKELAPVLFDDLSNVSRVNKTRFTMVRFGNVLGSSGSVIPLFHKQIKSGGPLTVTHPKITRYFMTIPEAAQLVIQAGSMGQGGDVFVLDMGEPVRIVELAEKMIHLSGLSVRSEKNPHGDIAIEFTGLRPGEKLYEELLIGDNVAATQHPMIMSANEDHLPWETLKLKLAELLAALELDDYARVRQLLRETVSGYTPDGEIVDWVYQQRRLKP	failed
MATIHVDGKTLEVDGADNLLQACLSLGLDIPYFCWHPALGSVGACRQCAVKQYTDENDKRGRLVMSCMTPATDNTWISIEDEEAKQFRASVVEWLMTNHPHDCPVCEEGGHCHLQDMTVMTGHNERRYRFTKRTHQNQELGPFIAHEMNRCIACYRCVRYYKDYAGGTDLGVYGAHDNVYFGRVEDGVLESEFSGNLTEVCPTGVFTDKTHSERYNRKWDMQFAPSICHGCSSGCNISPGERYGEIRRIENRYNGSVNHYFLCDRGRFGYGYVNREDRPRQPLLVLSKQKLSLDGALDQAAALLKERKVVGIGSPRASLESNFALRELVGEGNFYSGINEGELDRLRLILQVMQEGPLPVPSIRDIEDHDAVFVLGEDLTQTAARIALALRQSVKGKAVEMAADMKVQPWLDAAVKNIAQHAQNPLFIASVSATRLDDVAEETVHAAPDDLARLGFAVAHAIDPSAPSVADLDPQAQAFAQRITDALLAAKRPLVVSGNSLGNKALIEAAANIAKALKQREKNGSISLVVGEANSLGLALFGGDSVEAALERLTSGQADAVVVLENDLYRRTDAARVDAALAAAKVVIVADHQQTATTAKAHLVLPAASFAEGDGTLVSQEGRAQRFFQVFDPTYYDARNMVREGWRWLHAIHSTLQGKRVDWTQLDHVTEAVAEAKPILAGIRDAAPAASFRIKGLKLAREPHRYSGRTAMRANISVHEPRTPQDIDSAFAFSMEGYSGSQEDRQQIPFAWSPGWNSPQAWNKFQDEVGGHLRAGDPGVRLIEPKGEGLDWFQAVPVPFSAKADSWKVVPLYHLFGSEENSSRAAPIQQRIPETYVALSKEDADRLGVNDGATLGFQLKGQALRLPLRIDEQLGAGLIGLPVGFAGIPAAIAGCSVEGLQ	failed
MQRCLRIQVARRHKLRNGKILDLGQQPTAPLLSLYLSTAQSRVISNEEPASISWSCAEAGSALGLSSASGSAEEAEPWPGVRRGTEAGQYEFARAGEAAAAVRAAAAVAVARAGMRRYLRVVGLCLACGFCSLLYAFSQLAVSLEEGAAVGRRPQAAVASWLADGGRGTGRGAGSAGPGRTGRCKEVSLSYWNPYWMLPSDVCGVNCFWEAAFRYGLKTRPTEKMHLAVVACGDRLEETVTMLKSALIFSIKPLHVHIFAEDQLHDSFKDRLDSWSFLQRFNYSLYPITFPSDSAMEWKKLFKPCASQRLFLPLILKGVDSLLYVDTDVLFLRPVDDIWSLLERFNSTQIAAMAPEHEEPRVGWYNRFARHPYYGRTGVNSGVMLMNMTRMRRKYFKNDMTTARLQWGDILMPLLKKYKLNITWGDQDLLNIMFYHNPESLFVFPCQWNYRPDHCIYGSNCREAEEEGVFILHGNRGVYHDDKQPAFRAMYEALRNCSLEDDSVRSLLKPLELELQKTVHTYCGKTYKIFIKQLAKSIRNRYDTPPKER	failed
KSEIGKYAPFFSLPNAKGEKITRSSDAFKQKSLLINFWASWNDSISQKQSNSELREIYKKYKKNKYIGMLGISLDVDKQQWKDAIKRDTLDWEQVCDFGGLNSEVAKQYSIYKIPANILLSSDGKILAKNLRGEELKKKIENIVEEA	not failed
MCGTRSSAQTSKTSLCALLLSAAMSLVLAAPASAAADCIAGSKAAPAELITSCSAIIDQAANSSSDRAAALLVRADANARTSGGLTQALRDIDRAIALDGKNAKAWRLRGDLLREAGGDLNRAAADLSKAIELDPQDAESYELRGVVYTSQRRLDRALADYDQAIKLKPGDAQAWSDRGVTYYLGGDNEKAIRDLSEALRLDPNRPRTYTNRGAAYKKLGQLDKSVADAAEAIRLDPKVPEYYDNRGLSLAAMGDYDKAIADYDQALRLAPKPNFFTNRGDSYQFKGEFGAALSDYESALKLDPNFAQTYNNRAVLYKKMGERRKALADYETALKLDPGNDNAANGRRTMIAEIAKFGDEPRRPLAANSGNGPSFDCATAKREVEKVICADPELGVLDRQIAETYERVLKSANRRSAGDLRRTQRDFLATRNSSFGRPGYDLRKVMQERLQRLNAMEG	failed
MPVAISLPTSSTSHFFPRRRGHANHRYQRFSGAQSSTEDPYIRKNQTGVIIIGAGLAGLAAANQLTSKRIPFLLLEASDGVGGRVRTDIVDGFFLDRGFQIFITAYPEAKKLLDYEALDLQRFYAGAKVFYGGKFHTVADPLRHFWDSVASLANPIGSVVDKGLIALTRARVLIKSDEEILTAADEVPTIDLLRKIGFSETILDRFFRPFFGGIFFDRDLETTSKLFDFVFRCLALGENTLPAMGIGEISNQLAAKLPAKSVLLNTRVASIEYPNGSGSDPPSVRLQDGSVMKAELGVIIAVEQPEVNKLLDGIRDPVITKPARSTICLYFTAEPNQIPVQDPVLFLNGSNSGIINNMFFATNVARTYAPPGKALVSVSLIGLFEDRTDDDLAAEVLRELSGWFGESPVMSWKHLKTYRIQFAQPNQCPPTDLVKSPRVGSGLYLSGDYMTSATFDGALVSGRRAVEVLLRETGLIK	failed
